The labels stand for the following.
B1: POU domain, class 3, transcription factor 2, residues 262 to 338; numbered along this chain, P20265 (parent)
chain: EDTPTSDDLEQFAKQFKQRRIKLGFTQADVGLALGTLYGNVFSQTTICRFEALQLSFKNMCKLKPLLNKWLEEADSS

The values that follow come from the Human Domainome abundance scans (Beltran et al. 2025).

± gives the uncertainty stated by the source.

This data set covers variants of B1. Nature of the data set: abundance fitness (aPCA) (normalised: wild type 0, dead -1); higher = more abundant; growth selection in yeast, the domain comes from the species named. As to conditions: Homo sapiens.
For EDTPTSDDLEQFAKQFKQRRIKLGFTQADVGLALGTLYGNVFSQTTICRFEALQLSFKNMCKLKPLLNDWLEEADSS [K69D], the abundance fitness is -0.264 ± 0.14.

For the variant EDTPTSDDLEQFAKQFKQRRIKLGFTQADVGLALGTLYGNVFSQTTICRFEALQLSFKNMCKLKPLLNFWLEEADSS [K69F], the abundance fitness was -0.234 ± 0.14.

Consider EDTPTSDDLEQFAKQFKQRRIKLGFTQADVGLALGTLYGNVFSQTTICRFEALQLSFKNMCKLKPLLNAWLEEADSS [K69A], for which the abundance fitness is -0.094 ± 0.07.

As for EDTPTSDDLEQFAKQFKQRRIKLGFTQADVGLALGTLYGNVFSQTTICRFEALQLSFKNMCKLKPLLNSWLEEADSS [K69S], the abundance fitness is -0.146 ± 0.1.

Take EDTPTSDDLEQFAKQFKQRRIKLGFTQADVGLALGTLYGNVFSQTTICRFEALQLSFKNMCKLKPLLNVWLEEADSS [K69V]: the abundance fitness is -0.273 ± 0.084.

On to EDTPTSDDLEQFAKQFKQRRIKLGFTQADVGLALGTLYGNVFSQTTICRFEALQLSFKNMCKLKPLLNWWLEEADSS [K69W], for which the abundance fitness is -0.288 ± 0.16.

As to EDTPTSDDLEQFAKQFKQRRIKLGFTQADVGLALGTLYGNVFSQTTICRFEALQLSFKNMCKLKPLLNRWLEEADSS [K69R], the abundance fitness was determined as 0.019 ± 0.056.

Consider EDTPTSDDLEQFAKQFKQRRIKLGFTQADVGLALGTLYGNVFSQTTICRFEALQLSFKNMCKLKPLLNMWLEEADSS [K69M], for which the abundance fitness worked out at 0.112 ± 0.14.

As for EDTPTSDDLEQFAKQFKQRRIKLGFTQADVGLALGTLYGNVFSQTTICRFEALQLSFKNMCKLKPLLNLWLEEADSS [K69L], the abundance fitness was -0.144 ± 0.092.

For EDTPTSDDLEQFAKQFKQRRIKLGFTQADVGLALGTLYGNVFSQTTICRFEALQLSFKNMCKLKPLLNTWLEEADSS [K69T], the abundance fitness was -0.02 ± 0.08.

Regarding EDTPTSDDLEQFAKQFKQRRIKLGFTQADVGLALGTLYGNVFSQTTICRFEALQLSFKNMCKLKPLLNQWLEEADSS [K69Q], the abundance fitness was -0.003 ± 0.087.

For EDTPTSDDLEQFAKQFKQRRIKLGFTQADVGLALGTLYGNVFSQTTICRFEALQLSFKNMCKLKPLLNEWLEEADSS [K69E], the abundance fitness is -0.231 ± 0.1.

As for EDTPTSDDLEQFAKQFKQRRIKLGFTQADVGLALGTLYGNVFSQTTICRFEALQLSFKNMCKLKPLLNYWLEEADSS [K69Y], the abundance fitness stood at 0.138 ± 0.16.

For EDTPTSDDLEQFAKQFKQRRIKLGFTQADVGLALGTLYGNVFSQTTICRFEALQLSFKNMCKLKPLLNCWLEEADSS [K69C], the abundance fitness is -0.449 ± 0.16.

Regarding EDTPTSDDLEQFAKQFKQRRIKLGFTQADVGLALGTLYGNVFSQTTICRFEALQLSFKNMCKLKPLLNNWLEEADSS [K69N], the abundance fitness is -0.298 ± 0.25.

Take EDTPTSDDLEQFAKQFKQRRIKLGFTQADVGLALGTLYGNVFSQTTICRFEALQLSFKNMCKLKPLVNKWLEEADSS [L67V]: the abundance fitness was -0.525 ± 0.099.

In the case of EDTPTSDDLEQFAKQFKQRRIKLGFTQADVGLALGTLYGNVFSQTTICRFEALQLSFKNMCKLKPLMNKWLEEADSS [L67M], the abundance fitness worked out at 0.006 ± 0.085.

For EDTPTSDDLEQFAKQFKQRRIKLGFTQADVGLALGTLYGNVFSQTTICRFEALQLSFKNMCKLKPLCNKWLEEADSS [L67C], the abundance fitness is -0.504 ± 0.23.

Consider EDTPTSDDLEQFAKQFKQRRIKLGFTQADVGLALGTLYGNVFSQTTICRFEALQLSFKNMCKLKPLWNKWLEEADSS [L67W], for which the abundance fitness was -0.798 ± 0.16.

In the case of EDTPTSDDLEQFAKQFKQRRIKLGFTQADVGLALGTLYGNVFSQTTICRFEALQLSFKNMCKLKPLPNKWLEEADSS [L67P], the abundance fitness was -0.654 ± 0.16.

With EDTPTSDDLEQFAKQFKQRRIKLGFTQADVGLALGTLYGNVFSQTTICRFEALQLSFKNMCKLKPLFNKWLEEADSS [L67F], the abundance fitness is -0.399 ± 0.2.

EDTPTSDDLEQFAKQFKQRRIKLGFTQADVGLALGTLYGNVFSQTTICRFEALQLSFKNMCKLKPLDNKWLEEADSS [L67D]: the abundance fitness was -0.759 ± 0.43.

On to EDTPTSDDLEQFAKQFKQRRIKLGFTQADVGLALGTLYGNVFSQTTICRFEALQLSFKNMCKLKPLGNKWLEEADSS [L67G], for which the abundance fitness was -1.05 ± 0.21.

Turning to EDTPTSDDLEQFAKQFKQRRIKLGFTQADVGLALGTLYGNVFSQTTICRFEALQLSFKNMCKLKPLKNKWLEEADSS [L67K], the abundance fitness is -0.688 ± 0.18.

As for EDTPTSDDLEQFAKQFKQRRIKLGFTQADVGLALGTLYGNVFSQTTICRFEALQLSFKNMCKLKPLANKWLEEADSS [L67A], the abundance fitness is -0.553 ± 0.12.

EDTPTSDDLEQFAKQFKQRRIKLGFTQADVGLALGTLYGNVFSQTTICRFEALQLSFKNMCKLKPLTNKWLEEADSS [L67T]: the abundance fitness was -0.407 ± 0.32.

EDTPTSDDLEQFAKQFKQRRIKLGFTQADVGLALGTLYGNVFSQTTICRFEALQLSFKNMCKLKPLENKWLEEADSS [L67E]: the abundance fitness was -0.936 ± 0.27.

Turning to EDTPTSDDLEQFAKQFKQRRIKLGFTQADVGLALGTLYGNVFSQTTICRFEALQLSFKNMCKLKPLSNKWLEEADSS [L67S], the abundance fitness is -0.619 ± 0.13.

EDTPTSDDLEQFAKQFKQRRIKLGFTQADVGLALGTLYGNVFSQTTICRFEALQLSFKNMCKLKPLLNKSLEEADSS [W70S]: the abundance fitness is -0.742 ± 0.065.

EDTPTSDDLEQFAKQFKQRRIKLGFTQADVGLALGTLYGNVFSQTTICRFEALQLSFKNMCKLKPLLNKLLEEADSS [W70L]: the abundance fitness is -0.502 ± 0.043.

For the variant EDTPTSDDLEQFAKQFKQRRIKLGFTQADVGLALGTLYGNVFSQTTICRFEALQLSFKNMCKLKPLLNKVLEEADSS [W70V], the abundance fitness was -0.411 ± 0.042.

As for EDTPTSDDLEQFAKQFKQRRIKLGFTQADVGLALGTLYGNVFSQTTICRFEALQLSFKNMCKLKPLLNKHLEEADSS [W70H], the abundance fitness is -0.943 ± 0.21.

Consider EDTPTSDDLEQFAKQFKQRRIKLGFTQADVGLALGTLYGNVFSQTTICRFEALQLSFKNMCKLKPLLNKELEEADSS [W70E], for which the abundance fitness is -0.742 ± 0.077.

Regarding EDTPTSDDLEQFAKQFKQRRIKLGFTQADVGLALGTLYGNVFSQTTICRFEALQLSFKNMCKLKPLLNKALEEADSS [W70A], the abundance fitness is -0.519 ± 0.048.

For the variant EDTPTSDDLEQFAKQFKQRRIKLGFTQADVGLALGTLYGNVFSQTTICRFEALQLSFKNMCKLKPLLNKTLEEADSS [W70T], the abundance fitness was -1.06 ± 0.18.
